From patent US20250019435A1 (ALBERT EINSTEIN COLLEGE OF MEDICINE, published 2025)

Experiments:
[1] = biological target: T1, KIR2DL5-Ig fusion protein (KIR2DL5 extracellular domain fused to human IgG1 Fc) (human, UniProt Q8N109 22-240); test: BLI, Octet RED96; KIR2DL5-Ig captured on anti-human Fc biosensors, mAb in solution; global 1:1 fit
T1 construct: A D0-only fusion (H22-A128) also exists; also called KIR2DL5-human Ig fusion protein; KIR2DL5 DO-D2-Ig; not shown: human IgG1 Fc tag
Protocol: Biolayer interferometry. The affinities of anti-KIR2DL5 mAbs were analyzed by biolayer interferometry using an Octet RED96 system (ForteBio, Pall LLC). Briefly, anti-human Fc capture biosensors (ForteBio, Pall LLC) were preloaded with KIR2DL5-Ig and then dipped into a solution containing mAb at 2-fold serial dilutions (from 200 to 1.5 μg/mL). Data were analyzed using Forte Pall (Port Washington, New York, USA) software 9.0. The global data fitting to a 1:1 binding model was used to estimate values for the Kₒₙ (association rate constant), Koff (dissociation rate constant), and KD (equilibrium dissociation constant).

[2] = biological target: KIR2DL5 D0 variant G97S expressed on 3T3 cells (human, UniProt Q8N109 22-375); test: flow cytometry on 3T3 cells expressing the KIR2DL5 D0 variant
[3] = biological target: KIR2DL5 D0 variant T46S expressed on 3T3 cells (human, UniProt Q8N109 22-375); test: as above
[4] = biological target: KIR2DL5 D0 variant P112S expressed on 3T3 cells (human, UniProt Q8N109 22-375); test: as above
[5] = biological target: KIR2DL5 D0 variant R52H expressed on 3T3 cells (human, UniProt Q8N109 22-375); test: as above
[6] = biological target: T2, KIR2DL5 wild type (KIR2DL5A*001) expressed on cells (human, UniProt Q8N109 22-375); test: flow cytometry, blocking: KIR2DL5/3T3 cells preincubated with serial F8B30, then 20 µg/mL PVR-Ig
T2 construct: UniProtKB Q8N109 and NP_065396.1 are printed for this entry; In the SHP-1/SHP-2 co-immunoprecipitation the cells were treated with pervanadate and the receptor was tyrosine-phosphorylated; also called KIR2DL5/3T3; WT KIR2DL5
Protocol: Specifically, a cell-based binding assay was performed by incubating PVR-Ig fusion protein with KIR2DL5- or KIR2DL4-expressing 3T3 cells. Conversely, KIR2DL5 was selectively bound by PVR, but not by CD112 (also known as nectin-2), another ligand for TIGIT and DNAM-1 in the nectin/nectin-like family (FIG. 10A). Furthermore, anti-KIR2DL5 mAb F8B30 blocked KIR2DL5-PVR interaction (EC₅₀=0.095 μM) (FIG. 10B). The specificity of KIR2DL5 binding to PVR was also evidenced by an intercellular interaction assay, in which 3T3 cells expressing PVR interacted with 3T3 cells expressing KIR2DL5, but not with cells expressing KIR3DL3 (FIG. 18B), a newly identified inhibitory receptor of HHLA2 (Zang, 2022; Wei 2021; Bhatt 2021).
Fusion protein cell binding assays. PVR-Ig, CD112-Ig, or hIgG (R&D Systems) was incubated with corresponding 3T3 cells on ice for 45 minutes, followed by incubation with APC- or PE-conjugated anti-human IgG Fc antibody (1:100; clone HP6017, BioLegend) on ice for 30 minutes. Cells were then acquired on an LSR II flow cytometer (BD Biosciences). In the anti-KIR2DL5 mAb blocking assay, KIR2DL5/3T3 cells were preincubated with a serial concentration of anti-KIR2DL5 mAb F8B30 or mIgG1 on ice for 30 minutes. After washing, the cells were then incubated with 20 μg/mL PVR-Ig or hIgG on ice for 45 minutes, followed by incubation with APC anti-human IgG Fc antibody on ice for 30 minutes. […]

T1 sequence (Q8N109 22-240): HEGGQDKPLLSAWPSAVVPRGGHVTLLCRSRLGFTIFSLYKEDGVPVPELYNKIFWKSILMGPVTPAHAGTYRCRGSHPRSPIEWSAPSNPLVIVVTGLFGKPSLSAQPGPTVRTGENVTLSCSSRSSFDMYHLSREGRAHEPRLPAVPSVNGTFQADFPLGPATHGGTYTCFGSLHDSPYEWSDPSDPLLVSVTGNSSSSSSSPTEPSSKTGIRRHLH
Chain of KIR2DL5 D0 variant T46S expressed on 3T3 cells (Q8N109 22-375 T46S): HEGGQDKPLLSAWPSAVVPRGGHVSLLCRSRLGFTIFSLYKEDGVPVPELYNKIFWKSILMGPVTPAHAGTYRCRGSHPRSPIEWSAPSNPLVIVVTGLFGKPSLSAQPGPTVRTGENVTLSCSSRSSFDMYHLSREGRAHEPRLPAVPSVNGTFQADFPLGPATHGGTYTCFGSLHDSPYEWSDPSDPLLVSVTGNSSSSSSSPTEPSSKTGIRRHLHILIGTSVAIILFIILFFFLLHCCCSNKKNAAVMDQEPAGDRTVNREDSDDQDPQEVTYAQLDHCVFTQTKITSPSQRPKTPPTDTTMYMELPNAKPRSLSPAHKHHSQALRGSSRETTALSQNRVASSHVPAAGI
Chain of KIR2DL5 D0 variant R52H expressed on 3T3 cells (Q8N109 22-375 R52H): as the sequence (Q8N109 22-375 T46S) above, with S25T, R31H counted along it
Chain of KIR2DL5 D0 variant P112S expressed on 3T3 cells (Q8N109 22-375 P112S): as the sequence (Q8N109 22-375 T46S) above, with S25T, P91S counted along it
Chain of KIR2DL5 D0 variant G97S expressed on 3T3 cells (Q8N109 22-375 G97S): as the sequence (Q8N109 22-375 T46S) above, with S25T, G76S counted along it

B1: anti-KIR2DL5 mAb clone F8B30 (antibody, V domains shown)
VH: QIQLVQSGPELKKPGETVKISCKASGYTFTDYSMHWVKQAPGKGLKWMGWINTETGGPTYADDFKGRFAFSLETSATTAYLQINNLKNEDTATYFCSRDVDLYFDYWGQGTTLTVS
VL: DIQMTQSPASLSASVGETVTITCRTSENIYSYLAWYQQKQGKSPQLLVYNAKTLVEGVPSRFSGSGSGTQFSVKINSLQPEDFGNYYCQHHYGIPFTFGGGTKLEIK
notes: also called F8B30 (IgG1, κ)
Binder B1 has a Kd [1] of 0.723 nM, a koff [1] of 0.000444 s⁻¹ and a kon [1] of 615000 M⁻¹ s⁻¹. For the same binder, the EC50 [2] was 43.6 nM, the EC50 [3] was 8.6 nM and the EC50 [4] was 9.4 nM. For the same binder, the EC50 [5] was 9.2 nM and the EC50 [6] was 95 nM.
